What was measured:
[1] = target: human adenovirus type 3 fibre knob (HAd3K), fibre residues 124-319, co-expressed with DSG2 EC2-EC3 (human adenovirus type 3) (UniProt P04501); test: cryo-EM structure; complex co-expressed in E. coli and co-purified (Ni-NTA, SEC); 150 mM NaCl, 3 mM CaCl2, 10 mM Tris-Cl pH 8.0; Volta phase plate; particles with one or two EC2-EC3 modules per knob trimer sorted by classification
[2] = target: the molecule itself; test: as above

Sequence of human desmoglein 2 EC2-EC3 domains (DSG2 residues 100-337), co-expressed with HAd3K in E. coli (domain or fragment) (Q14126 100-337): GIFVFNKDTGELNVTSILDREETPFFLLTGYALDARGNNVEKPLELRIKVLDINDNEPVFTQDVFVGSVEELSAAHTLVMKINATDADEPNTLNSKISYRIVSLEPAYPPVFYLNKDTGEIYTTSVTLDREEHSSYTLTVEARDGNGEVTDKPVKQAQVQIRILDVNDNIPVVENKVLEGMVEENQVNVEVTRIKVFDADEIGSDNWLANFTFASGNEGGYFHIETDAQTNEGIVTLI

Molecule	stoichiometry N (DSG2 per knob trimer) [1]	stoichiometry N (receptor per knob trimer) [1]	stoichiometry N [2]
human desmoglein 2 EC2-EC3 domains (DSG2 residues 100-337), co-expressed with HAd3K in E. coli (domain or fragment)	2	1	
human adenovirus type 3 fibre knob (HAd3K), fibre residues 124-319, co-expressed with DSG2 EC2-EC3 (domain or fragment, fibre protein of human adenovirus type 3, knob, fibre residues 124-319; Trimer; also called HAd3 fibre knob; HAdK3; source: E. coli Rosetta(DE3)pLysS, pETDuet, co-expressed with EC2-EC3, complex purified (Ni-NTA, SEC)) NSIALKNNTLWTGPKPEANCIIEYGKQNPDSKLTLILVKNGGIVNGYVTLMGASDYVNTLFKNKNVSINVELYFDATGHILPDSSSLKTDLELKYKQTADFSARGFMPSTTAYPFVLPNAGTHNENYIFGQCYYKASDGALFPLEVTVMLNKRLPDSRTSYVMTFLWSLNAGLAPETTQATLITSPFTFSYIREDD			3
